2 molecules from publication PMC3098719 (Molecular cell, 2008) can be followed below.

Where a chain is given by its changes, count along the chain named.

Experiment [1] addresses Kae1 (M. jannaschii Kae1, residues 1-328 of MJ1130) (Methanocaldococcus jannaschii, UniProt Q58530). In words: ATP-binding assay.
Experiment [2] addresses T1, GST-Kae1 (residues 1-328 of Methanococcus jannaschii MJ1130) (Methanococcus jannaschii, UniProt Q58530 1-328).
T1 sequence (looked up): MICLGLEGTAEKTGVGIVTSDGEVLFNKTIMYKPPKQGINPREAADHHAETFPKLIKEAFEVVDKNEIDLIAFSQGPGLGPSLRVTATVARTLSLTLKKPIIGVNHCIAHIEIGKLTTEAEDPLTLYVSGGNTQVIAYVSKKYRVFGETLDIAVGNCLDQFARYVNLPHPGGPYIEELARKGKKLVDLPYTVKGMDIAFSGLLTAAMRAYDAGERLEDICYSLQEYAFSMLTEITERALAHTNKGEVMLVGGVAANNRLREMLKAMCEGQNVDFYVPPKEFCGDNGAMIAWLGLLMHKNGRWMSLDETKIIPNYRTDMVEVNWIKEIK
In words: pull-down.

For experiment [3], the target named is T2, GST-Kae1 T88R/T92R (M. jannaschii) (Methanococcus jannaschii, UniProt Q58530 1-328, T88R | T92R).
T2 sequence (looked up): T1 sequence (looked up) with T88R, T92R
In words: pull-down.

Experiment [4] deals with T3, GST-Kae1 T88R (M. jannaschii) (Methanococcus jannaschii, UniProt Q58530 1-328, T88R).
T3 sequence (looked up): T1 sequence (looked up) with T88R
In words: pull-down.

Experiment [5] addresses T4, GST-Kae1 T88R/R91E (M. jannaschii) (Methanococcus jannaschii, UniProt Q58530 1-328, T88R | R91E).
T4 sequence (looked up): T1 sequence (looked up) with T88R, R91E
In words: pull-down.

For `Nc1ncnc2c1ncn2[C@@H]1O[C@H](COP(=O)(O)OP(=O)(O)OP(=O)(O)O)[C@@H](O)[C@H]1O` [ATP], binding in experiment [1] was characterised by a dissociation constant (Kd) of 27 µM.

B1: Bud32 (residues 328-535 of Methanococcus jannaschii MJ1130), untagged (domain or fragment, UniProt Q58530 328-535, looked up)
chain: KGKKRKIPEHLIGKGAEADIKRDSYLDFDVIIKERVKKGYRDERLDENIRKSRTAREARYLALVKDFGIPAPYIFDVDLDNKRIMMSYINGKLAKDVIEDNLDIAYKIGEIVGKLHKNDVIHNDLTTSNFIFDKDLYIIDFGLGKISNLDEDKAVDLIVFKKAVLSTHHEKFDEIWERFLEGYKSVYDRWEIILELMKDVERRARYVE
With B1, the binding result in experiment [2], in experiment [3], in experiment [4] and in experiment [5] was “binds” throughout.
